Measurements as given in the supplement of paper PMC11136658.

Test system: peptide library, one residue held at a place counted from the Y acceptor
Assay: relative phosphorylation of the sub-library (ratio to the mean residue at this position); higher = residue favoured
Outline: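 Biotinylated Tyr-centred peptide library mixtures, each fixing one residue at one position from −5 to +5, were incubated with purified recombinant kinases in 384-well plates for 90 min with 50 μM ATP plus γ-32P-ATP. Streptavidin membranes captured the peptides, which were rinsed and quantified by phosphorimaging and ImageQuant. At each position, intensities were divided by the sum of the 18 randomized residues (16 for the Ser/Thr-free library) and multiplied by that number. Each value is phosphorylation relative to the mean randomized residue.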

Sequence of BLK, construct: Full length, human (P51451 whole entry, looked up): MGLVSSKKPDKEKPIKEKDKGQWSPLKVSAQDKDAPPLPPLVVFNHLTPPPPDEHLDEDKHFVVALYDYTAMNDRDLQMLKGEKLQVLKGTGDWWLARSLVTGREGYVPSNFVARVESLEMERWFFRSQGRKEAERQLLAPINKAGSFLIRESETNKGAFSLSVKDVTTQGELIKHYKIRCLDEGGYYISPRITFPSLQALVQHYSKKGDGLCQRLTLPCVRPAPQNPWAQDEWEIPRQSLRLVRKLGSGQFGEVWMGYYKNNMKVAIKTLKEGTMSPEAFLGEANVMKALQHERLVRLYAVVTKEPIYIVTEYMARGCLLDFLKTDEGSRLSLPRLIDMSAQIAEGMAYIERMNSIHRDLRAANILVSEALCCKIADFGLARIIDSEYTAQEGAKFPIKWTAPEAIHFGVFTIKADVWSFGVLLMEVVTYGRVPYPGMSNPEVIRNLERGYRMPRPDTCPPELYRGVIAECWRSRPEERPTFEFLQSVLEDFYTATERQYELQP
Sequence of BTK, construct: Full length, human (Q06187 whole entry, looked up): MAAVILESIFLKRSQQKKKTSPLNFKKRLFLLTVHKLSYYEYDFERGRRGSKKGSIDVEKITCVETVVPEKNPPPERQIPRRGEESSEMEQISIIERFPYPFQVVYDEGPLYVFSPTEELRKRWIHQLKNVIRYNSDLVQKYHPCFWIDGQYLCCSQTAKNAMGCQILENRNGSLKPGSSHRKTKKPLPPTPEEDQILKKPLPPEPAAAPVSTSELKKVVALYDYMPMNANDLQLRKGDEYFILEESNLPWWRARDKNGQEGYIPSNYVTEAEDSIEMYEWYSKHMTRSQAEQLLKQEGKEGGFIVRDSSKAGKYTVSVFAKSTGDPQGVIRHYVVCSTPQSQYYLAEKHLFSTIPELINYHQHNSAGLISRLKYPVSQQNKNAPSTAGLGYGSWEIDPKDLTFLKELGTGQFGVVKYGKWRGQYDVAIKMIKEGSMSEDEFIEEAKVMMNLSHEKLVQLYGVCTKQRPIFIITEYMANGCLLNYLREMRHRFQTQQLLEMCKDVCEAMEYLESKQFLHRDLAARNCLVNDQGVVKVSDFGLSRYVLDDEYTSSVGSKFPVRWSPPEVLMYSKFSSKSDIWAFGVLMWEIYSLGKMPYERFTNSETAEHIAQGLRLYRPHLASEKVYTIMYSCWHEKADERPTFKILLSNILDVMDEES
Sequence of ABL1, construct: aa27-end, human (P00519 27-1130, looked up): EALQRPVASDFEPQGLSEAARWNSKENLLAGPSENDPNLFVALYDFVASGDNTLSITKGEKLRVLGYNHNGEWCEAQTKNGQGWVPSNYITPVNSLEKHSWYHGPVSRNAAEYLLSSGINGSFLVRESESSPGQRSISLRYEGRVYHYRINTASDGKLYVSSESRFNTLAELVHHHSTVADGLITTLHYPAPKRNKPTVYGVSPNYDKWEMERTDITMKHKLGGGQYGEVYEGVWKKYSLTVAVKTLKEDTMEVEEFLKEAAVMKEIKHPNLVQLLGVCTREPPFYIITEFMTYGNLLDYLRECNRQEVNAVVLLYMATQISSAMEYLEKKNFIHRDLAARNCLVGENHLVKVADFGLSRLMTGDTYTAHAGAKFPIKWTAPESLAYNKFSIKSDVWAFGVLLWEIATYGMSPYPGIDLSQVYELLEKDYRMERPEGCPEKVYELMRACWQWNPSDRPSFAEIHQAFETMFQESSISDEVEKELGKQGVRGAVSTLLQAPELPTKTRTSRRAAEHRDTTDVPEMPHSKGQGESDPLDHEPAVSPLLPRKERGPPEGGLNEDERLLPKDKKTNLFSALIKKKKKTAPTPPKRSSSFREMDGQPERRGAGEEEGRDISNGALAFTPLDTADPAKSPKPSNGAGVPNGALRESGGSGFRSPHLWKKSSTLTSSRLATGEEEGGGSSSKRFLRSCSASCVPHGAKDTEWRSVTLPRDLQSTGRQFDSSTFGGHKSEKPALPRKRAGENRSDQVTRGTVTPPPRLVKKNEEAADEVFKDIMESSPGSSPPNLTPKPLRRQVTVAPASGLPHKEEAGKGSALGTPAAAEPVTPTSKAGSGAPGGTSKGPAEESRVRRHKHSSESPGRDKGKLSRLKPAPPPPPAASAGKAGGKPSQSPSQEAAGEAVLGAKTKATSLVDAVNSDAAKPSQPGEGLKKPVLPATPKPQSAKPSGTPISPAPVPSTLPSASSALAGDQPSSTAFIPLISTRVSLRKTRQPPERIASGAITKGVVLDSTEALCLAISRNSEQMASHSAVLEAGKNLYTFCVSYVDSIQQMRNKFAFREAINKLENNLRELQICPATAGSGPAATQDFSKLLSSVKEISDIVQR

ABL1, construct: aa27-end, human (from UniProt P00519)
relative phosphorylation
Conditions | at +1 | at +2 | at +3 | at +4 | at +5 | at -1 | at -2 | at -3 | at -4 | at -5
A fixed | 3.14 | 1.24 | 0.892 | 0.948 | 1.12 | 0.702 | 1.12 | 1.02 | 1.24 | 1.16
D fixed | 0.625 | 0.513 | 0.23 | 0.579 | 0.651 | 0.886 | 0.85 | 1.21 | 1.2 | 1.03
E fixed | 0.874 | 0.93 | 0.159 | 0.615 | 0.611 | 1.2 | 1.24 | 1.91 | 1.52 | 0.963
F fixed | 0.86 | 0.975 | 1.28 | 1.16 | 0.705 | 0.795 | 0.615 | 0.796 | 0.702 | 0.817
G fixed | 1.36 | 0.628 | 1.36 | 1.34 | 1.27 | 0.502 | 1.27 | 1.16 | 1.36 | 1.24
H fixed | 1.17 | 0.749 | 0.814 | 1.17 | 1.1 | 1.63 | 0.935 | 0.919 | 0.893 | 1.07
I fixed | 0.406 | 1.05 | 1.14 | 0.772 | 0.681 | 3.33 | 0.883 | 0.491 | 0.797 | 0.806
K fixed | 0.586 | 0.815 | 0.403 | 1.17 | 1.17 | 0.402 | 0.87 | 0.79 | 0.874 | 1.08
L fixed | 0.815 | 0.961 | 1.49 | 0.918 | 0.987 | 1.54 | 1.01 | 0.885 | 0.985 | 0.936
M fixed | 1.15 | 0.954 | 0.883 | 1.19 | 1.09 | 1.06 | 0.779 | 0.928 | 0.884 | 0.965
N fixed | 0.45 | 1.01 | 0.619 | 0.897 | 0.922 | 0.549 | 0.96 | 1.18 | 0.903 | 1.09
P fixed | 0.184 | 1.02 | 2.74 | 0.832 | 1.38 | 0.541 | 1.29 | 1.14 | 1.22 | 1.2
Q fixed | 1.13 | 0.901 | 0.419 | 1.09 | 0.947 | 0.745 | 1.08 | 0.973 | 1.18 | 1.07
R fixed | 0.969 | 1.22 | 0.633 | 1.36 | 1.36 | 0.406 | 0.825 | 0.813 | 0.953 | 1.19
S fixed | 1.16 | 1.32 | 1.17 | 1.01 | 1.06 | 0.472 | 1.12 | 1.06 | 0.86 | 1.01
T fixed | 0.843 | 1.37 | 1.28 | 0.939 | 1.19 | 0.908 | 1.19 | 1.05 | 0.796 | 0.97
V fixed | 1.03 | 1.39 | 1.04 | 0.925 | 0.996 | 1.81 | 1.4 | 0.873 | 1.01 | 0.873
W fixed | 1.26 | 0.958 | 1.44 | 1.08 | 0.743 | 0.516 | 0.567 | 0.799 | 0.622 | 0.509
pThr fixed | 0.766 | 0.921 | 0.395 | 0.391 | 0.458 | 0.785 | 0.973 | 1.51 | 1.11 | 0.913
pTyr fixed | 1.47 | 1.77 | 0.465 | 0.55 | 0.607 | 3.35 | 1.39 | 2.36 | 1.66 | 1.18

BLK, construct: Full length, human (from UniProt P51451)
relative phosphorylation
Conditions | at +1 | at +2 | at +3 | at +4 | at +5 | at -1 | at -2 | at -3 | at -4 | at -5
A fixed | 2.14 | 1.24 | 0.602 | 0.865 | 0.935 | 0.611 | 1.17 | 0.881 | 1.14 | 1.08
D fixed | 1.33 | 0.554 | 0.236 | 0.56 | 0.668 | 0.87 | 1.64 | 1.7 | 1.68 | 1.46
E fixed | 2 | 1.17 | 0.228 | 0.643 | 0.62 | 1.58 | 2.03 | 2.08 | 1.68 | 1.35
F fixed | 0.463 | 0.799 | 1.9 | 1.14 | 1.02 | 0.648 | 0.466 | 0.996 | 0.777 | 0.846
G fixed | 3.16 | 0.79 | 0.772 | 1.28 | 1.12 | 0.46 | 1.41 | 1.09 | 1.34 | 1.27
H fixed | 0.603 | 0.666 | 0.822 | 1.2 | 1.08 | 0.592 | 0.778 | 1.05 | 0.879 | 0.978
I fixed | 0.558 | 0.865 | 2.22 | 0.721 | 0.713 | 3.23 | 0.629 | 0.607 | 0.833 | 0.764
K fixed | 0.198 | 0.856 | 0.598 | 1.35 | 1.39 | 0.303 | 0.597 | 0.47 | 0.732 | 0.941
L fixed | 0.458 | 0.767 | 2.47 | 1.13 | 0.834 | 1.8 | 0.682 | 0.73 | 0.805 | 0.721
M fixed | 1.11 | 0.83 | 0.927 | 1.16 | 0.938 | 0.995 | 0.605 | 0.853 | 0.913 | 0.816
N fixed | 0.538 | 0.874 | 0.448 | 0.796 | 0.93 | 0.421 | 1.3 | 1.37 | 0.96 | 1.09
P fixed | 0.222 | 1.29 | 0.565 | 0.834 | 1.18 | 0.706 | 1.35 | 0.917 | 1.2 | 1.23
Q fixed | 1.16 | 0.957 | 0.414 | 0.998 | 0.87 | 0.589 | 1.15 | 0.926 | 1.09 | 1.12
R fixed | 0.335 | 1.26 | 1.3 | 1.71 | 1.78 | 0.324 | 0.707 | 0.619 | 0.81 | 0.97
S fixed | 1.15 | 1.49 | 0.608 | 0.921 | 1.06 | 0.454 | 1.16 | 1.09 | 0.833 | 0.968
T fixed | 0.904 | 1.78 | 0.724 | 0.902 | 1.09 | 1.54 | 1.07 | 1.05 | 0.82 | 0.859
V fixed | 0.71 | 1.18 | 1.29 | 0.759 | 0.786 | 2.31 | 0.762 | 0.62 | 0.737 | 0.753
W fixed | 0.956 | 0.629 | 1.88 | 1.04 | 0.981 | 0.564 | 0.478 | 0.951 | 0.784 | 0.793
pThr fixed | 0.782 | 1.66 | 0.255 | 0.373 | 0.472 | 2.81 | 1.61 | 1.16 | 1.21 | 1.35
pTyr fixed | 1.22 | 1.85 | 0.494 | 0.629 | 0.643 | 0.876 | 1.17 | 1.55 | 1.41 | 1.4

BTK, construct: Full length, human (from UniProt Q06187)
relative phosphorylation
Conditions | at +1 | at +2 | at +3 | at +4 | at +5 | at -1 | at -2 | at -3 | at -4 | at -5
A fixed | 1.39 | 0.87 | 1.06 | 0.754 | 0.911 | 0.443 | 0.964 | 0.709 | 1.04 | 0.982
D fixed | 0.67 | 0.561 | 0.345 | 0.63 | 0.755 | 0.375 | 1.14 | 1.22 | 1.19 | 1.1
E fixed | 1.36 | 1.13 | 0.302 | 0.661 | 0.676 | 0.416 | 1.24 | 1.71 | 1.41 | 0.914
F fixed | 0.954 | 1.32 | 1.41 | 1.1 | 1.46 | 1.97 | 0.934 | 1.43 | 1.13 | 1.21
G fixed | 1.1 | 0.546 | 0.759 | 0.928 | 0.941 | 0.308 | 1.04 | 0.779 | 1.03 | 1.01
H fixed | 0.657 | 0.679 | 0.995 | 1.02 | 0.909 | 1.3 | 0.871 | 1 | 0.984 | 1.02
I fixed | 1.17 | 1.19 | 1.42 | 1.01 | 0.796 | 2.79 | 0.874 | 0.799 | 1.01 | 1.04
K fixed | 0.398 | 0.873 | 1.01 | 1.17 | 1.05 | 0.294 | 0.708 | 0.644 | 0.736 | 0.884
L fixed | 1.03 | 0.884 | 0.801 | 0.915 | 1.05 | 2.9 | 1.3 | 0.812 | 1.1 | 0.941
M fixed | 1.43 | 1.05 | 0.925 | 1.38 | 1.24 | 1.55 | 0.796 | 1.11 | 1.03 | 1.18
N fixed | 0.466 | 0.827 | 0.886 | 0.779 | 0.949 | 0.589 | 1.21 | 1.1 | 0.823 | 1.17
P fixed | 0.181 | 0.636 | 0.553 | 0.772 | 1.23 | 0.526 | 1.19 | 0.967 | 1.03 | 0.99
Q fixed | 0.963 | 0.923 | 0.722 | 1.07 | 0.816 | 0.486 | 0.966 | 0.892 | 1.01 | 0.937
R fixed | 0.524 | 1.26 | 1.62 | 1.53 | 1.25 | 0.279 | 0.771 | 0.729 | 0.964 | 0.985
S fixed | 0.888 | 1.05 | 1.14 | 0.749 | 0.755 | 0.375 | 1.15 | 0.814 | 0.725 | 0.766
T fixed | 0.812 | 1.27 | 0.946 | 0.917 | 0.816 | 0.788 | 0.868 | 0.745 | 0.658 | 0.769
V fixed | 1.58 | 1.27 | 1.3 | 0.944 | 0.892 | 1.55 | 1.07 | 0.838 | 0.926 | 0.965
W fixed | 2.42 | 1.67 | 1.8 | 1.68 | 1.5 | 1.06 | 0.902 | 1.7 | 1.21 | 1.14
pThr fixed | 1.09 | 1.45 | 0.357 | 0.523 | 0.47 | 0.911 | 1.01 | 0.846 | 0.896 | 0.954
pTyr fixed | 1.22 | 1.58 | 0.433 | 0.603 | 0.684 | 1.26 | 1.14 | 1.15 | 1.26 | 1.09
